In paper PMC2949506:

Columns and labels:
[1] = biological target: Elongin BC complex (Homo sapiens) (UniProt Q15370); assay: ITC; conditions: cited from earlier work
[2] = biological target: Elongin BC complex (human Elongin B with Elongin C residues 17-122) (human) (UniProt Q15370); assay: HDX-MS
[3] = biological target: HIV-1 Vif (HXB2) L145A (HIV-1 (HXB2)) (UniProt P69723); assay: pull-down

Substance	Kd [1]	Kd [2]	also measured
Vif 139-192 (from UniProt P69722)	0.4 nM	–	–
HIV-1 Vif (HXB2) L145A (from UniProt P69723) (natural protein)	–	3900 nM	–
Vif 130-180 (from UniProt P69722)	1190 nM	–	–
Full length HIV-1 Vif (HXB2) (from UniProt P69723) (natural protein)	–	1900 nM	stoichiometry N [2]: 1
Elongin BC complex (human Elongin B with Elongin C residues 17-122) (from UniProt Q15370 1-118)	–	–	fold reduction of binding versus wt Vif [3]: 3 fold
